The results in this text go back to patent publication US20230390320A1 (RZNOMICS, published 2023).

One assay concerns the target T1, human PD1 (hPD1) (human, UniProt Q15116 25-288, limits assumed).
T1 construct: Stood in the ELISA as a lysate of cells expressing hPD1
The assay can be described thus: ELISA; lysate of hPD1-expressing cells coated on plate, scFv from stable 293A culture medium. In general terms: In an ELISA, binding on a coated surface is turned into a signal by an enzyme label.

The next assay has as its target T2, mouse PD1 (mPD1) (mouse, UniProt Q02242 25-288, limits assumed).
T2 construct: Stood in the ELISA as a lysate of cells expressing mPD1
T2 sequence (looked up): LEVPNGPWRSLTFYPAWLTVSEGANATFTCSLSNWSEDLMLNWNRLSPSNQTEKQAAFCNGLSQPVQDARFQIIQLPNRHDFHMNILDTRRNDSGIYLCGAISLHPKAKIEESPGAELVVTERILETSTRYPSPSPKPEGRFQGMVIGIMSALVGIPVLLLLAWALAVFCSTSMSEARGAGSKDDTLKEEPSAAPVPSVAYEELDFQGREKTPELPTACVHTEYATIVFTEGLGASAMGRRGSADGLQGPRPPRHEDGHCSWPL
In words: ELISA; lysate of mPD1-expressing cells coated on plate, scFv from stable 293A culture medium.

T1 sequence (Q15116 25-288 limits assumed): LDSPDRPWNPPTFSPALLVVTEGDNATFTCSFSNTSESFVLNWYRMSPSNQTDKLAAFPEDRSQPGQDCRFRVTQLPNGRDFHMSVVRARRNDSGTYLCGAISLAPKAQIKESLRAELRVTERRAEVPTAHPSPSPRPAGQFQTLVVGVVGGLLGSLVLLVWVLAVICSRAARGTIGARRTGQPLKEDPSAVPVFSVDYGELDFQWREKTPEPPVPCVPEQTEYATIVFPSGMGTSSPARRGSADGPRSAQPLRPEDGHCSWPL

B1: scFvPD1(I) (scFv, not shown: small tags and cut ends)
scFv: QVQLVQSGAEVKKPGASVKVSCKASGYTFTAQYMHWVRQAPGQGLEWMGIINPSGGETGYAQKFQGRVTMTRDTSTSTVYMELSSLRSEDTAVYYCAKEGVADGYGLVDVWGQGTMVTVSSGGGGSGGGGSGGGGSGGGGSEIVLTQSPATLSLSPGERATLSCRASQSVSSYLAWYQQKPGQAPRLLIYDASKRATGIPARFSGSGSGTDFTLTISSLEPEDFAVYYCDQRNNWPLTFGGGTKVEIK
notes: also called single chain variable fragment PD1; PD1scFv
Consider B1, for which the binding result with human PD1 (hPD1) and with mouse PD1 (mPD1) was “binds” each time.
